Measurements from patent US20250188153A1 (UNIVERSITY OF GEORGIA RESEARCH FOUNDATION, published 2025).

B1: MPV467 (antibody, V domains shown)
VH: EVQLVESGGGVVRPGTSLRVSCAAFDFNFRDYGMHWVRQAPGKGLEWVAGIWYDGSNKDYADSVKGRFTISRDNSQNTLYLQMNSLRVEDTAVYYCARDPRTHREGALSHFDSWGQGTLVTVSS
VL: PNELTQDPAVSVALGQTVRITCQGDSLRNYFAGWYQQKPGQAPLLVLYGENIRPSGIPDRFSGSSSGNTVSLTITGAQAEDEADYYCNSRDNSGNHWVFGGGTRLTVL
B2: MPV487 (antibody, V domains shown)
VH: EVQLLESGGGLVQPGRSLRLSCTASGFTFDDYAMHWVRQLPGKGLEWVSGISWNSDNIGYADSVKGRFTISRDNGKNSLYLQMNSLRAEDTAFYYCAKDVRIDYDLLIGHIDYWGPGTLVTVSS
VL: TQSPVTLSLSPGERATLSCRASQSFGGYCAWYQQKPGQSPRLLIYDASNRATGVPARFSGSGSGTDFTLTISSLEPEDSAVYFCQQRGNWPIFGQGTRLEI
B3: MPV454 (antibody, V domains shown)
VH: EVQLVESGGGLVKPGGSLRLSCSTSGFVFSSYAMHWVRQAPGKGLEHVSAISSTGDNTHYADSVKGRFTISRDNSRGRLYLQMTSVRPEDAALYYCVKDLYSGRFYYFLDDWGQGTRIIVSS
VL: DIQVTQSPSSLSASVGDRVTISCRASQNISNYLNWFQQRPGKAPKLLIYVASTLQSGAPSRFSGSGSGTDFTLTITDLQPEDFATYYCQQSYNTPPITFGQGTRLEIK
B4: MPV482 (antibody, V domains shown)
VH: EVQLVQSGGGVVQPGRSLRLSCAASGFTFSSFAMHWVRQAPGKGLEWVALISDDGNNKYHADSVKGRFTISRDSSKNTLYLQMNSLRGEDTAVYYCARDGSVVGAAAHCDHWGQGTLVTVSS
VL: SYELTQPPSVSVSPGQTARITCSGDALPNQCAYWYQQKPGLAPVLLIYKDKERPSGIPERFSGSISGTTVTLTISGVQAEDEADYYCQSSDSSSTVVFGGGTKLTVL
B5: MPV488 (antibody, V domains shown)
VH: EVQLVQSGFEVKKPGASVKVSCKASGYNFNNYGISWVRQAPGQGLEWMGWISAYTGNTNEAQKFQGRVSMTTDTSTSTAYMEVRSLRSDDTAVYYCARDIGSSMFYSYFYGMDVWGQGTTVIVSS
VL: SLSVSLGERATINCKSSESVLYNSNNENYLDWYQQKPGQPPKLLIYWASTRASGVPDRFSGSASGTDFTLTISSLQAEDVAVYYCQQYYSTPRTFGQGTKVEIK
B6: MPV86 (antibody, V domains shown)
VH: QVQLVQSGAEVKKPGSSVKVSCKASGDTFNDVALSWVRQAPGQGLEWLGGIIPFFGTANYAQRFQDRVTITADASTSTAYLELGGLRSEDTAVYYCARGWSCRNITCFMMGYYFYIMDVWGQGTLVTVSS
VL: LSLSPGERATLSCRASQSVGNFLAWYQQKPGQTPRLLIQDASNRATGIPARFSGTGSGTDFTLTISSLEPEDFAVYYCQQRSNWPPTFGPGTKVDIK
B7: MPV485 (antibody, V domains shown)
V domain 1: EVQLQEPGPGLVKPSETLSLTCTVSGGSISSTNSFWGWVRQPPGKGLEWIGSIYYSGTTYYNSSLKSRVTISVDTSKNQFSLRLSSVTAADTAVYYCARQGLTSSWYDGSGLDVWG
V domain 2: SYELTQPPSVSVSPGQTASITCSGDKLGNKYACWYQQRPGQSPVLVIYQDTKRPSGIPERFSGSNSGNTATLTISGTQAMDEADYYCQAWDSNTVVFGGGTKLTVL
B8: MPV477 (antibody, V domains shown)
VH: EVQLVQSGAEVKKPGASVEVSCKTSGYTFTDYYLHWVRQAPGQGLEWMGWINPRSGGTKYGQKFQGRVTMTRDTSISTAYMDLRGLRSDDTAVYYCARAPLLTVYAVAHRSGENRFDPWGQGTVTVSS
VL: QPPSLSGAPGQTVTISCTGSGSNIGAGYDVNWYQCLPGTAPKLLMFDNSNRPSGVPDRFSGSRSGASASLAITGLQAEDEADYYCQSYDSGLSGWVFGGGTKLTVL
B9: MPV486 (antibody, V domains shown)
VH: EVQLVESGGHLVQSGGSLRLSCAASGFTFSNYILNWVRQAPGKGLEWISYITGGSSAIYYADSVKGRFTISRDDAKNSLYLQMNNLRAEDTAVYYCARSHGYDSSGYYYYFAMDVWGQGTTVTVSS
VL: QSVLTQPPSASGTPGQRVTISCSGSNSNIESNTVNWYQQIPGTAPKLLIYSDNRRPSGVPDRFSGSKSGTSASLAISGLQSEDEADYYCAAWDDSLIGYVFGTGTKVTV
B10: MPV478 (antibody, V domains shown)
VH: EVQLVQSGAEVKKPGASVKVSCNASGYTFTGYYIHWVRQAPGQGLEWMGWINPRSGGTNYAQKFQGRVTLTRDTSITTAYMDVTRLRPDDTAVYYCATTREGIVLMPRGRGDDALDTWGQGTTVIVSS
VL: DIVMTQSPVSLTVSLGERATINCKSSQSVLSTSNNENYLAWYQQKPGQPPNLLIYWASTRESGVPDRFSGSGSGTDFTLTISSLQAEDVAVYYCQQYFATPITFGPGTKVDVK
B11: MPV483 (antibody, V domains shown)
VH: EVQLVQSGAELKKPGSSVKVSCKASGDTFSNYAISWVRQAPGQGLEWMGGIIPIYNTANYAQKFQGRVTLTADESTSTAYMELSSLRSEDTAVYYCARDVRNNWSVLRGARYYYYGMDVWGQGTTVTVSS
VL: DIVMTQTPFSLSASVGDRVTVTCRASQDISNSLAWFQQKPGKAPKSLIYAASSLQSGVPTRFSGGGSGTDFTLTISSLQPEDFATFYCLQYDSFPPTFGGGTKVEI
B12: MPV481 (antibody, V domains shown)
VH: EVQLVQSGGGLVKPGGSLRLSCAASGLPFNNAWMNWVRQAPGKGLEWVGRIKSKIDGGTTEYAAPVKGRFTISRDDSENTLYLQMNSLRTEDTAVYYCTTEYYALLSGNYSDCWGQGTLVTVSS
VL: DIVMTQSPFSLSLSPGERATLSCRASQSIKRAYLGWYQQKPGQAPRLLIYGASNRATGIPDRFSGSGSGTDFTLTISRLEPEDFAVYYCQQYGDSPGGSFGQGTKLEIR
B13: MPV464 (antibody, V domains shown)
VH: QVQLQESGPGLVKPSQTLSLTCTVSGGSVRGGGDYWSWIRRPPGKGLEWIGHIYNSGTTFYNPSLKSRVTISIDTSKNQFSLKLRSVTAADTAVYYCGRVGSRATGLPDWIDPWGQGTLVTVSS
VL: SYELTQPPSVSVSPGQTATITCSGTNLGAKYSCWYQQKPGQSPVLVIFQDNKRASGIPARFSASTSGDTATLTISGTQVMDEADYFCQAWDSRTAVFGGGTTLTVL
B14: MPV414 (antibody, V domains shown)
VH: QVQLVQSGPEVKKPGSSVMVSCKTSGGNFNNFAISWVRQAPGQGLEWMGGIVPIFGTANYAQKSQDRVTITADPSSSTAYLQLSSLTSDDTAIYYCARDLGRSSNYYYYSVFESWGQGTLVTVSS
VL: DIVMTQSPATLSLSPGERATLSCRASQSVGDKLAWYQQKPGQAPRLLIYGASTRATDIPARFSGSGSGTEFTLTVSSLQPEDFAVYYCQQYENWPPITFGQGTRLEIK
B15: MPV456 (antibody, V domains shown)
VH: QVQLQESGPGVVKPSGTLSLTCGVSGGSISSSYWWSWVRQPPGKGLEWIGEIYHSGSTNYNPSLKRRVTISVDKSKNQFSLKVTSVTAADTAVYYCARGPIQYYDILTEERVGYCDYWGQGTLVTVSS
VL: TLSASVGDRVTITCRASQSISSWLAWFQQKPGKAPKLLIYKTSSLESGVPSRFSGSGSGTEFTLTISSLQPDDFATYYCQEYNSYSRTFGQGTKVEIK
B16: MPV491 (antibody, V domains shown)
VH: QVQLQESGPGLVKSSQTLSLTCTVSGGSISSVTSHWTWIRQHPGKGLEWIGYIFSSGTTYYSPSLRSRLTMSVDTSKNQFSLQLSSVTAADTAMYYCARGIYCGDSCYKGTDYWGRGTLVTVSS
VL: IRLMTQTPVTLPVTPGEPASISCRSSQSLLHSNGYNYLDWYLQKPGQSPQLLIYRGSTRASGVPDRFSGSGSGTEFTLKISRVEAEDVGVYYCMQGLQTPYTFGQGTKLESR
B17: MPV489 (antibody, V domains shown)
VH: EVQLLESGGGLVQPGGSLRLSCAASKFTFNNYEMNWLRQAPGKGLEWVSSISSSGDTIHNADSVKGRFIISRDNAKNSLHLQMNGLRAEDTAVYYCARAGSGWAYDAFDIWGLGTMVTVSS
VL: LSASVGDRVTITCRASQSISSFLNWYQQKPGKAPKLLMYAASSLPVGVPSRFSGSGSGPEYTLTISNLQPEDFATYYCQQGYSSPPTFGGGTRLEVK

These binders were tested against T1, hMPV F protein of hMPV CAN/97-83 (genotype A) (human metapneumovirus, UniProt Q6WB98 19-539) (assay: cell-based or functional assay).
T1 sequence (Q6WB98 19-539): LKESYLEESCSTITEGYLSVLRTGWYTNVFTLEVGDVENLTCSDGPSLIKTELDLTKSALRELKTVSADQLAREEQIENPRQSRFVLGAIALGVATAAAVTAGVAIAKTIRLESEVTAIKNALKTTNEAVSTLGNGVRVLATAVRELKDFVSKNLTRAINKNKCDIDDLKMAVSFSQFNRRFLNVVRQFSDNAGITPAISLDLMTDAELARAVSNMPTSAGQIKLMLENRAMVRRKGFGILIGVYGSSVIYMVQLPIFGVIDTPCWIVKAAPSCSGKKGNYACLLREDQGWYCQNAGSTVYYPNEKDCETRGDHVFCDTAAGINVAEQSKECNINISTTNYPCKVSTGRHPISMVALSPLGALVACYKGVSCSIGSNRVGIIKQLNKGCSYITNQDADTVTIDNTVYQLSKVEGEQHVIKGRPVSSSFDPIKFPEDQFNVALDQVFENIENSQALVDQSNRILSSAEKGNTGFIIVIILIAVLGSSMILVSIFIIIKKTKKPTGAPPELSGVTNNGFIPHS

| Binder | neutralizing activity, plaque-reduction assay | fold lower neutralization IC50 than against hMPV TN/93-32 |
| --- | --- | --- |
| B1 | < 20 ng/mL |  |
| B2 | < 20 ng/mL |  |
| B3 | < 20 ng/mL |  |
| B4 | < 20 ng/mL |  |
| B5 | < 20 ng/mL | ≥ 20 fold |
| B6 |  | ≥ 20 fold |
| B7 |  | ≥ 20 fold |
| B8 |  | ≥ 20 fold |

What follows are binders tested against T2, hMPV F protein of hMPV TN/93-32 (genotype B) (human metapneumovirus) (assay: cell-based or functional assay).

| Binder | neutralizing activity, plaque-reduction assay |
| --- | --- |
| B1 | < 1 ng/mL |

Molecular target: T1, hMPV F protein of hMPV CAN/97-83 …
Assay: cell-based or functional assay
Remark: another data set of the same source

| Binder | IC50, plaque-reduction neutralization of hMPV CAN/97-83 |
| --- | --- |
| B1 | 0.005 µg/mL |
| B2 | 0.003 µg/mL |
| B3 | 0.002 µg/mL |
| B4 | 0.014 µg/mL |
| B5 | 0.018 µg/mL |
| B6 | 0.057 µg/mL |
| B7 | 0.091 µg/mL |
| B8 | 0.054 µg/mL |
| B9 | 0.51 µg/mL |
| B10 | 0.21 µg/mL |
| B11 | 0.032 µg/mL |
| B12 | 0.096 µg/mL |
| B13 | 0.14 µg/mL |
| B14 | 0.044 µg/mL |
| B15 | 0.45 µg/mL |
| B16 | 5.7 µg/mL |
| B17 | 3.6 µg/mL |

Molecular target: T2, hMPV F protein of hMPV TN/93-32 …
Assay: cell-based or functional assay
Remark: another data set of the same source

| Binder | IC50, plaque-reduction neutralization of hMPV TN/93-32 |
| --- | --- |
| B1 | 0.0006 µg/mL |
| B2 | 0.012 µg/mL |
| B3 | 0.025 µg/mL |
| B4 | 0.047 µg/mL |
| B5 | 2.4 µg/mL |
| B6 | 1.8 µg/mL |
| B7 | 2.6 µg/mL |
| B8 | 2.9 µg/mL |
| B9 | 0.062 µg/mL |
| B10 | 0.068 µg/mL |
| B11 | 0.11 µg/mL |
| B12 | 0.26 µg/mL |
| B13 | 0.4 µg/mL |
| B14 | 0.59 µg/mL |
| B15 | 0.81 µg/mL |
| B16 | 1.9 µg/mL |
| B17 | 2.3 µg/mL |
